Test results taken from PMC4113144, “IRF-1 regulates alternative mRNA splicing of carcinoembryonic antigen-related cell adhesion molecule 1 (CEACAM1) in breast epithelial cells generating an immunoreceptor tyrosine-based inhibition motif”.

Biological target: T1, IRF-1 (UniProt P10914 1-325)
T1 sequence: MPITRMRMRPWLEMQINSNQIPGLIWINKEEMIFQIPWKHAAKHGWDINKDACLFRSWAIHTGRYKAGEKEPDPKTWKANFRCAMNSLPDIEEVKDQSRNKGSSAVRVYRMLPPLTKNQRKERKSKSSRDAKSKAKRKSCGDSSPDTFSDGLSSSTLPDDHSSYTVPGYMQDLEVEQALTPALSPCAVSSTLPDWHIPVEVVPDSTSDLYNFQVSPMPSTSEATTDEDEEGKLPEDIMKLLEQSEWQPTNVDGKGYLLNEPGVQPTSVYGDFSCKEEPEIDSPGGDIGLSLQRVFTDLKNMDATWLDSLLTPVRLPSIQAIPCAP
Assay: EMSA; 17 pmol IRF-1 : 0.3 pmol DNA lowest ratio; mostly C1 plus C2 complexes; LightShift 1X binding buffer, 5% glycerol, 10 mM MgCl2, 200 ng poly(dI-dC), 0.3 pmol labeled DNA in 10 ul, room temperature 30 min; 6% DNA retardation gel; pH and salt not given
Conditions: protein: commercial; tags: His; label: IRDye 700

B1: CEACAM1 ISRE WT 60-mer (dsDNA)
DNA 1: TGGGAAACCAAAATGTAGACAGAAAGGAAAGAGAAAGTAAGGACAAAGGTAGGAATGAGA
DNA 2: TCTCATTCCTACCTTTGTCCTTACTTTCTCTTTCCTTTCTGTCTACATTTTGGTTTCCCA
Question: Does B1 bind?
Answer: binds
